Experimental data taken from US20110212094A1 (AbbVie / Abbott, published 2011).

T1: Recombinant Human SOST (human, UniProt Q9BQB4 24-213)
T1 construct: R&D reagent in Biacore; also called sclerostin; Human sclerostin (Abbott PR-1261069)
T1 sequence (looked up): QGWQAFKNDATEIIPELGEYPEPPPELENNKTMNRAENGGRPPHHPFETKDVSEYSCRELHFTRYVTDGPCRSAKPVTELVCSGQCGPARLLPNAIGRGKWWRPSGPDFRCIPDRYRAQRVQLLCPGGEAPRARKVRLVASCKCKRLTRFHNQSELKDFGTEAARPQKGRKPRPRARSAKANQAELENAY

B1: AB022 (antibody, V domains shown)
VH: EVQLQQSGPELVTPGASVKISCKASGYTFTDHYMSWVKQSHGKSLEWIGDINPYSGETTYNQKFKGTATLTVDKSSSIAYMEIRGLTSEDSAVYYCARDDYDASPFAYWGQGTLVTVSA
VL: DVQMIQSPSSLSASLGDIVTMTCQASQGTSINLNWFQQKPGKAPKLLIYGSSNLEDGVPSRFSGSRYGTDFTLTISSLEDEDLATYFCLQHSYLPYTFGGGTKLEIKR
notes: Parent anti-SOST antibody; also called SOST; AB022VH
B2: DVD1256 (bispecific antibody, human IgG1, kappa)
heavy: not shown
light: EIVMTQSPATLSVSPGERATLSCRASQSVSSNLAWYQQKPGQAPRLLIHGASIRATGLPARFSGSGSGTEFTLTISSLQSEDFAVYYCQQYNYWWTFGQGTKVEIKRTVAAPDVQMIQSPSSLSASLGDIVTMTCQASQGTSINLNWFQQKPGKAPKLLIYGSSNLEDGVPSRFSGSRYGTDFTLTISSLEDEDLATYFCLQHSYLPYTFGGGTKLEIKRTVAAPSVFIFPPSDEQLKSGTASVVCLLNNFYPREAKVQWKVDNALQSGNSQESVTEQDSKDSTYSLSSTLTLSKADYEKHKVYACEVTHQGLSSPVTKSFNRGEC
notes: constant regions from vectors V1/V2; also called DVD1256H; DVD1256L
B3: DVD1249 (bispecific antibody, human IgG1, kappa)
heavy: not shown
light: DVQMIQSPSSLSASLGDIVTMTCQASQGTSINLNWFQQKPGKAPKLLIYGSSNLEDGVPSRFSGSRYGTDFTLTISSLEDEDLATYFCLQHSYLPYTFGGGTKLEIKRTVAAPDIQMTQSPSSLSASVGDRVTITCRASQGIRIDLGWYQQKPGKAPKRLIYAASTLQSGVPSRFSGSGSGTEFIFTISSLQPEDFASYYCLQHKSYPLTFGGGTKVEIKRTVAAPSVFIFPPSDEQLKSGTASVVCLLNNFYPREAKVQWKVDNALQSGNSQESVTEQDSKDSTYSLSSTLTLSKADYEKHKVYACEVTHQGLSSPVTKSFNRGEC
notes: constant regions from vectors V1/V2; also called DVD1249H; DVD1249L
B4: DVD1229 (bispecific antibody, human IgG1, kappa)
heavy: not shown
light: DVQMIQSPSSLSASLGDIVTMTCQASQGTSINLNWFQQKPGKAPKLLIYGSSNLEDGVPSRFSGSRYGTDFTLTISSLEDEDLATYFCLQHSYLPYTFGGGTKLEIKRTVAAPDILLTQSPAILSVSPGERVSFSCRASQFVGSSIHWYQQRTNGSPRLLIKYASESMSGIPSRFSGSGSGTDFTLSINTVESEDIADYYCQESHSWPFTFGSGTNLEVKRTVAAPSVFIFPPSDEQLKSGTASVVCLLNNFYPREAKVQWKVDNALQSGNSQESVTEQDSKDSTYSLSSTLTLSKADYEKHKVYACEVTHQGLSSPVTKSFNRGEC
notes: constant regions from vectors V1/V2; also called DVD1229H; DVD1229L
B5: DVD1230 (bispecific antibody, human IgG1, kappa)
heavy: not shown
light: EIVLTQSPATLSLSPGERATLSCRASQSVYSYLAWYQQKPGQAPRLLIYDASNRATGIPARFSGSGSGTDFTLTISSLEPEDFAVYYCQQRSNWPPFTFGPGTKVDIKRTVAAPDVQMIQSPSSLSASLGDIVTMTCQASQGTSINLNWFQQKPGKAPKLLIYGSSNLEDGVPSRFSGSRYGTDFTLTISSLEDEDLATYFCLQHSYLPYTFGGGTKLEIKRTVAAPSVFIFPPSDEQLKSGTASVVCLLNNFYPREAKVQWKVDNALQSGNSQESVTEQDSKDSTYSLSSTLTLSKADYEKHKVYACEVTHQGLSSPVTKSFNRGEC
notes: constant regions from vectors V1/V2; also called DVD1230H; DVD1230L
B6: DVD1248 (bispecific antibody, human IgG1, kappa)
heavy: not shown
light: DIQMTQSPSSLSASVGDRVTITCRASQGIRIDLGWYQQKPGKAPKRLIYAASTLQSGVPSRFSGSGSGTEFIFTISSLQPEDFASYYCLQHKSYPLTFGGGTKVEIKRTVAAPDVQMIQSPSSLSASLGDIVTMTCQASQGTSINLNWFQQKPGKAPKLLIYGSSNLEDGVPSRFSGSRYGTDFTLTISSLEDEDLATYFCLQHSYLPYTFGGGTKLEIKRTVAAPSVFIFPPSDEQLKSGTASVVCLLNNFYPREAKVQWKVDNALQSGNSQESVTEQDSKDSTYSLSSTLTLSKADYEKHKVYACEVTHQGLSSPVTKSFNRGEC
notes: constant regions from vectors V1/V2; also called DVD1248H; DVD1248L
B7: DVD1227 (bispecific antibody, human IgG1, kappa)
heavy: not shown
light: DVQMIQSPSSLSASLGDIVTMTCQASQGTSINLNWFQQKPGKAPKLLIYGSSNLEDGVPSRFSGSRYGTDFTLTISSLEDEDLATYFCLQHSYLPYTFGGGTKLEIKRTVAAPDIVMTQSHKFMSTTVGDRVSITCKASQAVSSAVAWYQQKPGQSPKLLIYWASTRHTGVPDRFTGSGSVTDFTLTIHNLQAEDLALYYCQQHYSTPFTFGSGTKLEIKRTVAAPSVFIFPPSDEQLKSGTASVVCLLNNFYPREAKVQWKVDNALQSGNSQESVTEQDSKDSTYSLSSTLTLSKADYEKHKVYACEVTHQGLSSPVTKSFNRGEC
notes: constant regions from vectors V1/V2; also called DVD1227H; DVD1227L
B8: AB214 (antibody, human IgG1, kappa, V domains shown)
VH: EVKLEESGGGLVQPGGSMKLSCVASGFIFSNHWMNWVRQSPEKGLEWVAEIRSKSINSATHYAESVKGRFTISRDDSKSAVYLQMTDLRTEDTGVYYCSRNYYGSTYDYWGQGTTLTVSS
VL: DILLTQSPAILSVSPGERVSFSCRASQFVGSSIHWYQQRTNGSPRLLIKYASESMSGIPSRFSGSGSGTDFTLSINTVESEDIADYYCQESHSWPFTFGSGTNLEVKR
notes: Parent anti-TNF antibody; also called AB214VH
B9: AB215 (antibody, human IgG1, kappa, V domains shown)
VH: QVQLVESGGGVVQPGRSLRLSCAASGFTFSSYAMHWVRQAPGNGLEWVAFMSYDGSNKYAKDSVKGRFTISRDNSKNTLYLQMNSLRAEDTAVYYCARDRGIAAGGNYYYYGMDVWGQGTTVTVSS
VL: EIVLTQSPATLSLSPGERATLSCRASQSVYSYLAWYQQKPGQAPRLLIYDASNRATGIPARFSGSGSGTDFTLTISSLEPEDFAVYYCQQRSNWPPFTFGPGTKVDIKR
notes: Parent anti-TNF antibody; also called AB215VH
B10: AB213 (antibody, human IgG1, kappa, V domains shown)
VH: QVQLKESGPGLVAPSQSLSITCTVSGFSLTDYGVNWVRQPPGKGLEWLGMIWGDGSTDYDSTLKSRLSISKDNSKSQIFLKMNSLQTDDTARYYCAREWHHGPVAYWGQGTLVTVSA
VL: DIVMTQSHKFMSTTVGDRVSITCKASQAVSSAVAWYQQKPGQSPKLLIYWASTRHTGVPDRFTGSGSVTDFTLTIHNLQAEDLALYYCQQHYSTPFTFGSGTKLEIKR
notes: Parent anti-TNF antibody; also called AB213VH
B11: AB217 (antibody, human IgG1, kappa, V domains shown)
VH: QVQLVESGGGVVQPGRSLRLSCAASGFTFSSYDMHWVRQAPGKGLEWVAVIWSDGSIKYYADSVKGRFTISRDNSKNTLYLQMNSLRAEDTAVYYCAREVESAMGGFYYNGMDVWGQGTTVTVSS
VL: DIQMTQSPSSLSASVGDRVTITCRASQGIRIDLGWYQQKPGKAPKRLIYAASTLQSGVPSRFSGSGSGTEFIFTISSLQPEDFASYYCLQHKSYPLTFGGGTKVEIKR
notes: Parent anti-TNF antibody; also called AB217VH
B12: AB218 (antibody, human IgG1, kappa, V domains shown)
VH: EVQLVESGGGLIQPGGSLRLSCAASGFTVSRNYMSWVRQAPGKGLEWVSVIYSGDRTYYADSVKGRFTISRDNSKNTLYLQMNSLRAEDTAVYYCARGEGGFDYWGQGTLVTVSS
VL: EIVMTQSPATLSVSPGERATLSCRASQSVSSNLAWYQQKPGQAPRLLIHGASIRATGLPARFSGSGSGTEFTLTISSLQSEDFAVYYCQQYNYWWTFGQGTKVEIKR
notes: Parent anti-TNF antibody; also called AB218VH

Biological target: T1, Recombinant Human SOST
Experiment: Biacore SPR
Method: (§1) The BIACORE assay (Biacore, Inc, Piscataway, N.J.) determines the affinity of antibodies or DVD-Ig with kinetic measurements of on-rate and off-rate constants. Binding of antibodies or DVD-Ig to a target antigen (for example, a purified recombinant target antigen) is determined by surface plasmon resonance-based measurements with a Biacore® 1000 or 3000 instrument (Biacore® AB, Uppsala, Sweden) using running HBS-EP (10 mM HEPES [pH 7.4], 150 mM NaCl, 3 mM EDTA, and 0.005% surfactant P20) at 25° C. All chemicals are obtained from Biacore® AB (Uppsala, Sweden) or otherwise from a different source as described in the text. For example, approximately 5000 RU of goat anti-mouse IgG, (Fcγ), fragment specific polyclonal antibody (Pierce Biotechnology Inc, Rockford, Ill.) diluted in 10 mM sodium acetate (pH 4.5) is directly immobilized across a CM5 research grade biosensor chip using a standard amine coupling kit according to manufacturer's instructions and procedures at 25 μg/ml. Unreacted moieties on the biosensor surface are blocked with ethanolamine. Modified carboxymethyl dextran surface in flowcell 2 and 4 is used as a reaction surface. Unmodified carboxymethyl dextran without goat anti-mouse IgG in flow cell 1 and 3 is used as the reference surface. For kinetic analysis, rate equations derived from the 1:1 Langmuir binding model are fitted simultaneously to association and dissociation phases of all eight injections (using global fit analysis) with the use of Biaevaluation 4.0.1 software. Purified antibodies or DVD-Ig are diluted in HEPES-buffered saline for capture across goat anti-mouse IgG specific reaction surfaces. Antibodies or DVD-Ig to be captured as a ligand (25 μg/ml) are injected over reaction matrices at a flow rate of 5 μl/min. The association and dissociation rate constants, kₘ (M⁻¹s⁻¹) and koff (s⁻¹) are determined under a continuous flow rate of 25 μl/min. Rate constants are derived by making kinetic binding measurements at different antigen concentrations ranging from 10-200 nM. The equilibrium dissociation constant (M) of the reaction between antibodies or DVD-Igs and the target antigen is then calculated from the kinetic rate constants by the following formula: KD=koff/kₒₙ. Binding is recorded as a function of time and kinetic rate constants are calculated.

| Kd [nM] | koff [s⁻¹] | kon [M⁻¹ s⁻¹] | Binder |
| --- | --- | --- | --- |
| 0.0408 | 0.000396 | 9.68e+06 | B1 |
| 1.59 | 0.000365 | 230000 | B2 |
| 0.017 | 0.000159 | 9.42e+06 | B3 |
| 0.0226 | 0.00019 | 8.43e+06 | B4 |
| 4.74 | 0.00029 | 61100 | B5 |
| 0.0546 | 0.00039 | 7.14e+06 | B6 |
| 0.03 | 0.000211 | 7.05e+06 | B7 |

Biological target: T2, Recombinant Human TNF-α/TNFSF1A (human, UniProt P01375 77-233)
T2 construct: Bought reagent for Biacore; also called huTNFα
T2 sequence (P01375 77-233 limits assumed): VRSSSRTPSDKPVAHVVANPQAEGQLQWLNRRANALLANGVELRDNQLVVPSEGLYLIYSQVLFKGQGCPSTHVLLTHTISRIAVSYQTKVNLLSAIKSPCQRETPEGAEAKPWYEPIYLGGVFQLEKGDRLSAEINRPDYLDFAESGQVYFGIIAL
Experiment: Biacore SPR
Method: as §1

| Kd [nM] | koff [s⁻¹] | kon [M⁻¹ s⁻¹] | Binder |
| --- | --- | --- | --- |
| 0.107 | 0.000291 | 2.73e+06 | B8 |
| 0.157 | 0.000272 | 1.74e+06 | B9 |
| 0.0335 | 0.000108 | 3.23e+06 | B10 |
| 0.0347 | 8.55e-05 | 2.46e+06 | B2 |
| 0.0272 | 5.04e-05 | 1.85e+06 | B11 |
| 0.389 | 0.000253 | 649000 | B3 |
| 3.6 | 0.000398 | 110000 | B4 |
| 0.0288 | 5.15e-05 | 1.79e+06 | B12 |
| 0.132 | 0.000223 | 1.69e+06 | B5 |
| 0.021 | 5.94e-05 | 2.83e+06 | B6 |
| 0.381 | 4.64e-05 | 122000 | B7 |

Biological target: T2, Recombinant Human TNF-α/TNFSF1A
Experiment: cell-based or functional assay

| TNFα Neutralization Assay EC50 nM (L929 cells) [nM] | C-terminal VD TNFα Neutralization Assay EC50 nM (L929 cells) [nM] | N-terminal VD TNFα Neutralization Assay EC50 nM (L929 cells) [nM] | Binder |
| --- | --- | --- | --- |
| 0.04 | – | – | B8 |
| 1.21 | – | – | B9 |
| 0.189 | – | – | B10 |
| 0.212 | – | – | B11 |
| – | 5.42 | – | B3 |
| 0.0345 | – | – | B12 |
| – | – | 1.05 | B5 |
| – | – | 0.006 | B6 |
| – | 1.23 | – | B7 |
